# Test results taken from patent US20040152869A1 (SCHERING, published 2004).
# Ends that are not written are not given here.
# How the values were obtained:
# [1] = target: T1, 10-mer truncated form of APP28, YEVHH-QKLVF (SEQ ID NO: 8)
# T1 chain: YEVHHQKLVF
# [2] = target: T2, Ac-Tyr-Glu-Val-Ala-His-Gln-Lys-Leu-Val-Phe-NH2 (SEQ ID NO: 13)
# T2 chain: YEVAHQKLVF
# [3] = target: T3, proteolytic ADAM33 polypeptide (wild-type ADAM33 catalytic domain with Ser-Gly-His6 Tag, expressed in … (Homo sapiens (Human), UniProt Q9BZ11 204-409)); assay: cell-based or functional assay
# T3 sequence: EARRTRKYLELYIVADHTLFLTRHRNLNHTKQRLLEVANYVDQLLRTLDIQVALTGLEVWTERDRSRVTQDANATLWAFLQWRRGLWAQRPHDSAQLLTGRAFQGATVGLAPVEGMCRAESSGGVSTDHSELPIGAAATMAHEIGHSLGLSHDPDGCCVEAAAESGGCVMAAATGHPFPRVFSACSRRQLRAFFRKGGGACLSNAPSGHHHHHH
Binder,Relative Activity [3],other results
"proteolytic ADAM33 polypeptide (wild-type ADAM33 catalytic domain with Ser-Gly-His6 Tag, expressed in Drosophila S2 cells) (protein) EARRTRKYLELYIVADHTLFLTRHRNLNHTKQRLLEVANYVDQLLRTLDIQVALTGLEVWTERDRSRVTQDANATLWAFLQWRRGLWAQRPHDSAQLLTGRAFQGATVGLAPVEGMCRAESSGGVSTDHSELPIGAAATMAHEIGHSLGLSHDPDGCCVEAAAESGGCVMAAATGHPFPRVFSACSRRQLRAFFRKGGGACLSNAPSGHHHHHH",,"cleavage [1]: identification of a 10-mer peptide substrate of a proteolytic ADAM33 polypeptide; kcat/Km [2]: kcat/Km=10,000 M-1s-1; rate of cleavage relative to the 10-mer truncated form of APP28 (SEQ ID NO: 8) [2]: at a rate seventeen times greater than the 10-mer truncated form of APP28 (SEQ ID NO: 8)"
EVAHQKLA-OH [EVAH*QKLA-OH (SEQ ID NO: 37)],0.1,
SGYEVAHQKLAFFA-OH [SGYEVAH*QKLAFFA-OH (SEQ ID NO: 11)],1.2,
SGYEVAHQKLA-OH [SGYEVAH*QKLA-OH (SEQ ID NO: 9)],0.5,
Ac-YEVAHQKLVF-NH2 [Ac-Tyr-Glu-Val-Ala-His-Gln-Lys-Leu-Val-Phe-NH2 (SEQ ID NO: 13)],1,
Ac-VAHQKL-NH2 [Ac-VAH*QKL-NH2 (SEQ ID NO: 38)],0,
YEVAHQKLAF-OH [YEVAH*QKLAF-OH (SEQ ID NO: 7)],1.1,
YEVAHQKLA-OH [YEVAH*QKLA-OH (SEQ ID NO: 12)],0.9,
